B1: NF-kappa-B essential modulator (Mus musculus), O88522 (parent)
chain: MNKHPWKNQLSEMVQPSGGPAEDQDMLGEESSLGKPAMLHLPSEQGTPETLQRCLEENQELRDAIRQSNQMLRERCEELLHFQVSQREEKEFLMCKFQEARKLVERLSLEKLDLRSQREQALKELEQLKKCQQQMAEDKASVKAQVTSLLGELQESQSRLEAATKDRQALEGRIRAVSEQVRQLESEREVLQQQHSVQVDQLRMQNQSVEAALRMERQAASEEKRKLAQLQAAYHQLFQDYDSHIKSSKGMQLEDLRQQLQQAEEALVAKQELIDKLKEEAEQHKIVMETVPVLKAQADIYKADFQAERHAREKLVEKKEYLQEQLEQLQREFNKLKVGCHESARIEDMRKRHVETPQPPLLPAPAHHSFHLALSNQRRSPPEEPPDFCCPKCQYQAPDMDTLQIHVMECIE

Experiments:
ubc_human UBC, P0CG48 [1] = variants of: B1; conditions: with ubc_human UBC
Chain of ubc_human UBC, P0CG48 (P0CG48 whole entry, looked up): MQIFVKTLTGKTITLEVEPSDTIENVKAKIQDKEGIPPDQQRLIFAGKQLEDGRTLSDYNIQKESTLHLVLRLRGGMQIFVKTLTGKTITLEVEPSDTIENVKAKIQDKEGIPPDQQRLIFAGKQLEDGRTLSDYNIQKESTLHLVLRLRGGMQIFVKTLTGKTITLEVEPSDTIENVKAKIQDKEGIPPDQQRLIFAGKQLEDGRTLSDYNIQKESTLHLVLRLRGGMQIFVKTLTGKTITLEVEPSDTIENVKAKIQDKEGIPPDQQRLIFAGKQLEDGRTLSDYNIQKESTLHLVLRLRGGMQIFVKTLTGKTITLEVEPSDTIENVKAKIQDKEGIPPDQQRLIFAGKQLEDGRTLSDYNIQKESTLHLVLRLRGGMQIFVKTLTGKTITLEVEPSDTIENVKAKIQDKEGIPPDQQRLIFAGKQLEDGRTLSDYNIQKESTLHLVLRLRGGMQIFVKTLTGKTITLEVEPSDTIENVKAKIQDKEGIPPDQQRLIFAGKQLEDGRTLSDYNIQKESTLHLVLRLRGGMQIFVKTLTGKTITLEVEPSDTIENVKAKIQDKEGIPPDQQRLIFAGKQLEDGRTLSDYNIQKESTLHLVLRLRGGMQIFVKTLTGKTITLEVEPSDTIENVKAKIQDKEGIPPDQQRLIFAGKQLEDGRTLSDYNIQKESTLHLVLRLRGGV

ubc_human UBC, P0CG48 [2] = variants of: B1; conditions: with ubc_human UBC; remark: listed apart in the source

| effect of a mutation on the interaction (ubc_human UBC, P0CG48 [1]) | effect of a mutation on the interaction (ubc_human UBC, P0CG48 [2]) | Variant |
| --- | --- | --- |
| disrupting interaction | decreasing interaction | Y301S |
| disrupting interaction | decreasing interaction | D304N |
